# Measured values reported in patent US20250320291A1.
# Target: biotinylated CD19 (UniProt P15391)
# Assay: yeast surface display of the scFv, flow cytometry titration of biotinylated CD19, 1:1 equilibrium binding fit, mean±SD of 3 trials
# Chain of UniProt P15391 (P15391 20-291 limits assumed): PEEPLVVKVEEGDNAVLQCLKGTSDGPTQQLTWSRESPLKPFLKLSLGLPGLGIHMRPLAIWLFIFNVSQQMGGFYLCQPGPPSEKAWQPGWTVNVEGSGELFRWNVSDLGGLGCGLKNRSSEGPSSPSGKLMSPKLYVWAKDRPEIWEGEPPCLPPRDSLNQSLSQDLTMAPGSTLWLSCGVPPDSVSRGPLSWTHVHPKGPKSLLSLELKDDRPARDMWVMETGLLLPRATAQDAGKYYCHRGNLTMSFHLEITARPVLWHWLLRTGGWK
substance,measurement,value
FMC63 parental murine anti-CD19 scFv,Kd,4.8 nM
